B1: A46抗体 (antibody, V domains shown)
VH: EVQLLESGGGLIQPGGSLRLSCAVSEFIVSRNYMSWVRQAPGKGLEWVSVLYPGGSTFYADSVKGRFTISRDESTNTLFLQMNTLRVEDTAVYYCARDFGDFYFDFWGQGTLVTVSS
VL: EIVLTQSPGTLSLSPGQRAALSCRASQSVSTYLAWYQQKPGQAPRLLIHDASSRASGVPDRFSGTGSGTDFTLTITRLEPEDFAVYYCQQYGTSPRTFGQGTKLEIK
notes: also called 抗体A46
B2: A70抗体 (antibody, V domains shown)
VH: QITLKESGPTLVKPTQTLTLTCTFSGFSLDTPGVAIGWIRQPPGRALEWLGLIYWDGDERYNPSLTSRVTLTKDTSKNQVVLTMTNVDSVDTGTYFCGHKTIPTIFGVWGQGAPVTVSS
VL: QSALTQPASVSGSPGQSITISCAATSGDFGVFNYVSWYQQHPGKAPKLIIFEVSSRPSGVSNRFSGSKSGNTASLTVSGLQAEDEAVYHCSSYSTSSVVFGGGTKLTVL
notes: also called 抗体A70

Molecular target: SARS-CoV-2 刺突RBD蛋白 (Sinobiological) (SARS-CoV-2, UniProt P0DTC2 319-541)

Row | Binder | EC50 [µg/mL] | IC50 [µg/mL]
1 | B1 | 0.0355 | 0.703
2 | B2 | 0.0511 | 0.515

Reference: patent publication CN115975019A (INST PATHOGEN BIOLOGY CAMS, dated 2023)
